Measurements reported in patent publication US6475717.

Columns and labels:
human IL-7 (human) = molecular target: T1, human IL-7 (human) (UniProt P13232); test: control in IL-4R/Fc sandwich ELISA; hu IL-7 at 50 ng/ml
T1 sequence (looked up): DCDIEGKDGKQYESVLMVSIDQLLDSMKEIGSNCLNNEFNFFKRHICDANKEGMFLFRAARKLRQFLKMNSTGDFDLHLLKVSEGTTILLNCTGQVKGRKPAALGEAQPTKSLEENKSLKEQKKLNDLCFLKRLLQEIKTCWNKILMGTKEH

[1] = molecular target: T2, murine recombinant IL-4 (Immunex, Lot 2871-023) (murine) (UniProt P07750); test: control in IL-4R/Fc sandwich ELISA; mu IL-4 at 50 ng/ml
T2 sequence (looked up): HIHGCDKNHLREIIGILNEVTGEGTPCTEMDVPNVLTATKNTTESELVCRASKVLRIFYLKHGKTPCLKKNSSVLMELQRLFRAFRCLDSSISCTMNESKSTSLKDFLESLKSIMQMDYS

human IL-2 (human) = human IL-2 (human) (UniProt P60568); test: control in IL-4R/Fc sandwich ELISA; hu IL-2 at 5000 IU/ml
UniProt P60568, sequence (P60568 21-153 limits assumed): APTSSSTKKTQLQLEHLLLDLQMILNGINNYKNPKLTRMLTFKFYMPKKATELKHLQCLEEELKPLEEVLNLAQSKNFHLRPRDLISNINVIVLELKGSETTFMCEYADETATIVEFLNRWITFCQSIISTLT

human IL-6 (human) = human IL-6 (human) (UniProt P05231); test: control in IL-4R/Fc sandwich ELISA; hu IL-6 at 5000 IU/ml
UniProt P05231, sequence (P05231 30-212 limits assumed): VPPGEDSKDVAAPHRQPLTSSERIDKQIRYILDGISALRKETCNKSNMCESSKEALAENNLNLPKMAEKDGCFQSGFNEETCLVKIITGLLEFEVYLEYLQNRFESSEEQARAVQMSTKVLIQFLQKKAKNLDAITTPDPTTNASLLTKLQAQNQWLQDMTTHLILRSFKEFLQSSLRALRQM

human IL-1-alpha (human) = molecular target: T3, human IL-1-alpha (human) (UniProt P01583); test: control in IL-4R/Fc sandwich ELISA; hu IL-1 α at 7.5 ng/ml
T3 sequence (looked up): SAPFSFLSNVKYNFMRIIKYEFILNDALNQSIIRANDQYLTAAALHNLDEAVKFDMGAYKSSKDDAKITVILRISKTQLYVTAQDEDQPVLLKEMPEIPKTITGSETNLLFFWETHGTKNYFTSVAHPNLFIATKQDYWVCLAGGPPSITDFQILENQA

human IL-1-beta (human) = human IL-1-beta (human) (UniProt P01584); test: control in IL-4R/Fc sandwich ELISA; hu IL-1 β at 16.6 ng/ml
UniProt P01584, sequence (P01584 117-269 limits assumed): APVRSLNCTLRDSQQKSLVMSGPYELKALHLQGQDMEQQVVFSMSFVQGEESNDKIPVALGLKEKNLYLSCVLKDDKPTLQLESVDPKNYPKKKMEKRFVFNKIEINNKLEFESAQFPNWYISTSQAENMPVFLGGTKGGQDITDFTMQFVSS

human TNF-alpha (human) [2] = molecular target: human TNF-alpha (human) (UniProt P01375); test: control in IL-4R/Fc sandwich ELISA; hu-TNF α (Immunex) at 50 ng/ml
UniProt P01375, sequence (P01375 77-233 limits assumed): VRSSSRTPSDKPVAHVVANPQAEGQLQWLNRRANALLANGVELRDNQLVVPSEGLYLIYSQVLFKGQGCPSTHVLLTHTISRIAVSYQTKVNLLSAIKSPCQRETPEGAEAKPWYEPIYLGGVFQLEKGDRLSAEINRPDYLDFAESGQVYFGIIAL

human TNF-alpha (human) [3] = molecular target: human TNF-alpha (human) (UniProt P01375); test: control in IL-4R/Fc sandwich ELISA; hu-TNF α as printed (Genzyme B1089) at 50 ng/ml
[4] = molecular target: human recombinant IL-4 (Immunex, Lot 1898-022) (human) (UniProt P05112); test: control in mu IL-4R/Fc sandwich ELISA; hu IL-4 at 50 ng/ml
UniProt P05112, sequence (P05112 25-153 limits assumed): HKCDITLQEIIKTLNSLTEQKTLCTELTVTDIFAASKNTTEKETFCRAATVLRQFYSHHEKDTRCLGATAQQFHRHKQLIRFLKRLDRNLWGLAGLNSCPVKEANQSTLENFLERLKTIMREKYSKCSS

[5] = molecular target: T4, murine IL-1-beta (murine) (UniProt P10749); test: control in mu IL-4R/Fc sandwich ELISA; mu IL-1 β at 10 ng/ml
T4 sequence (looked up): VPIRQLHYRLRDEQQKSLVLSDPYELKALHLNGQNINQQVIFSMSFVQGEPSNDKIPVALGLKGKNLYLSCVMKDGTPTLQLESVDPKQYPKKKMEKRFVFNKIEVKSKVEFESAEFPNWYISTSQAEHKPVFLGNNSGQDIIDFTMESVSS

[6] = molecular target: murine TNF-alpha (murine) (UniProt P06804); test: control in mu IL-4R/Fc sandwich ELISA; mu-TNF α at 100 ng/ml
UniProt P06804, sequence (P06804 80-235 limits assumed): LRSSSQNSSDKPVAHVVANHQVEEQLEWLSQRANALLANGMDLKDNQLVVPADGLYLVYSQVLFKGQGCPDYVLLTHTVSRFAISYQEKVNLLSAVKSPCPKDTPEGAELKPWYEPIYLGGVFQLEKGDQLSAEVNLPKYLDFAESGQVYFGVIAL

[7] = molecular target: T5, murine IL-1-alpha (murine) (UniProt P01582); test: control in mu IL-4R/Fc sandwich ELISA; mu IL-1 α at 100 IU/ml
T5 sequence (looked up): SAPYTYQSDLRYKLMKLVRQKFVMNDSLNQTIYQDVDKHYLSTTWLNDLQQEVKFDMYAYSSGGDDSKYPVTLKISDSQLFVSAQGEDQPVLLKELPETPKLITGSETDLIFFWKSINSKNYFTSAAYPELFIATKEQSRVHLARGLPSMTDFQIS

Measured: concentration determined from the extinction

human IL-4 receptor/immunoglobulin Fc fusion protein (from UniProt P24394 26-232)
not listed: [4] | [5] | [6] | [7]
< 31 pg/mL: all other assays above

B1: murine IL-4 receptor/immunoglobulin Fc fusion protein (Fc fusion, UniProt P16382 26-233, looked up, not shown: small tags and cut ends)
chain: IKVLGEPTCFSDYIRTSTCEWFLDSAVDCSSQLCLHYRLMFFEFSENLTCIPRNSASTVCVCHMEMNRPVQSDRYQMELWAEHRQLWQGSFSPSGNVKPLAPDNLTLHTNVSDEWLLTWNNLYPSNNLLYKDLISMVNISREDNPAEFIVYNVTYKEPRLSFPINILMSGVYYTARVRVRSQILTGTWSEWSPSITWYNHFQLPLIQR
< 31 pg/mL: [4] | [5] | [6] | [7]
